Reference: publication PMC8595303, “Dramatic activation of an antibody by a single amino acid change in framework” (Scientific Reports, 2021)

T1: mature form of human TGFβ2 (made from LAP-TGFβ2 in CHO, for crystallization) (Homo sapiens)
T1 construct: Transforming Growth Factor-beta 2, human, mature form separated from LAP-TGFβ2; also called TGFb2; TGFβ2 dimer
T1 chain: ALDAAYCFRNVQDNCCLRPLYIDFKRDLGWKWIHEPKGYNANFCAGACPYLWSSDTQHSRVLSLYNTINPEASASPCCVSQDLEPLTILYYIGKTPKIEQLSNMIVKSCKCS

B1: Fab fragment of h4A11.v2 (Fab, V domains shown)
VH: EQQLVESGGGLVQPGGSLRLSCAVSGFSLSSYTVNWVRQAPGKGLEWIGYISYGGSAYYASWANGRFTISKDSAKNSVYLQMNSLRAEDTAVYFCARHMQVGGAPTGSMAAFDPWGPGTLVTVSS
VL: DAQLTQSPSSLSASVGDRVTITCQSSQSVYNNNYLSWFQQKPGKPPKLLIYGASTLTSGVPSRFSGSGSGTDFTLTISSLQPEDFATYYCAGGYSGSSDKYAFGGGTKVEIK
notes: Fab heavy chain of h4A11.v2; its VH as the VH of m7; Fab light chain of h4A11.v2; its VL as the VL of m7; also called h4A11.v2-Fab; h4A11.v2 Fab; source: E. coli, purified (Protein G, SP-sepharose)
B2: humanized 4A11 variant 5 (antibody, V domains shown)
VH: B1 VH
VL: EAVLTQSPGTLSLSPGERATLSCQSSQSVYNNNYLSWFQQKPGQPPRLLIYGASTLTSGVPDRFSGSGSGTDFTLTISRLEPEDFAVYYCAGGYSGSSDKYAFGGGTKVEIK
notes: as the VH of m7 (h4A11.v2): rbt4A11 CDRs and rabbit Vernier residues grafted on human germline IGHV3-48*01; as the VL of m12 (h4A11.v7): rbt4A11 CDRs and rabbit Vernier residues grafted on human germline IGKV3-20*01; human IgG1; also called h4A11.v5; v5; source: Expi293F, transient, purified (Protein A, SEC)
B3: humanized 4A11 variant 6 (antibody, V domains shown)
VH: B1 VH
VL: DAVLTQTPLSSPVTLGQPASISCQSSQSVYNNNYLSWFQQRPGQPPRLLIYGASTLTSGVPDRFSGSGAGTDFTLKISRVEAEDVGVYYCAGGYSGSSDKYAFGGGTKVEIK
notes: as the VH of m7 (h4A11.v2): rbt4A11 CDRs and rabbit Vernier residues grafted on human germline IGHV3-48*01; rbt4A11 CDRs and rabbit Vernier residues (VL positions 2, 4, 36, 43, 58) grafted on human germline IGKV2-24*01; human IgG1; also called h4A11.v6; v6; source: Expi293F, transient, purified (Protein A, SEC)
B4: humanized 4A11 variant 7 (antibody, V domains shown)
VH: EQQLQESGPGLVKPSETLSLTCTVTGFSLSSYTVNWVRQPAGKGLEWIGYISYGGSAYYASWANGRFTISKDSSKNQVSLKLSSVTAADTAVYFCARHMQVGGAPTGSMAAFDPWGPGTLVTVSS
VL: B2 VL
notes: rbt4A11 CDRs (Kabat and Chothia) and rabbit Vernier residues (VH positions 2, 24, 37, 48, 49, 67, 71, 78, 91, 105) grafted on human germline IGHV4-59*06; has S19, S79, K81 (Kabat numbering); rbt4A11 CDRs and rabbit Vernier residues (VL positions 2, 4, 36, 43, 58) grafted on human germline IGKV3-20*01; human IgG1; also called h4A11.v7; v7; source: Expi293F, transient, purified (Protein A, SEC)
B5: humanized 4A11 variant 8 (antibody, V domains shown)
VH: B4 VH
VL: B3 VL
notes: as the VH of m12 (h4A11.v7): rbt4A11 CDRs and rabbit Vernier residues grafted on human germline IGHV4-59*06; as the VL of m11 (h4A11.v6): rbt4A11 CDRs and rabbit Vernier residues grafted on human germline IGKV2-24*01; human IgG1; also called h4A11.v8; v8; source: Expi293F, transient, purified (Protein A, SEC)
B6: humanized 4A11 variant 1 (antibody, V domains shown)
VH: B1 VH
VL: DAVLTQSPDSLAVSLGERATINCQSSQSVYNNNYLSWFQQKPGQPPKLLIYGASTLTSGVPDRFSGSGSGTDFTLTISSLQAEDVAVYYCAGGYSGSSDKYAFGGGTKVEIK
notes: as the VH of m7 (h4A11.v2): rbt4A11 CDRs and rabbit Vernier residues grafted on human germline IGHV3-48*01; rbt4A11 CDRs and rabbit Vernier residues (VL positions 2, 4, 36, 43, 58) grafted on human germline IGKV4-1*01; human IgG1; also called h4A11.v1; v1; source: Expi293F, transient, purified (Protein A, SEC)
B7: humanized 4A11 variant 2 (antibody, V domains shown)
VH: B1 VH
VL: B1 VL
notes: rbt4A11 CDRs (Kabat and Chothia) and rabbit Vernier residues (VH positions 2, 24, 37, 48, 49, 67, 71, 78, 91, 105) grafted on human germline IGHV3-48*01; has R19, Y79, Q81 (Kabat numbering); rbt4A11 CDRs and rabbit Vernier residues (VL positions 2, 4, 36, 43, 58) grafted on human germline IGKV1D-39*01; human IgG1; also called h4A11.v2; v2; source: Expi293F, transient, purified (Protein A, SEC)

Molecular target: T1, mature form of human TGFβ2 (made from …)
Test: crystal structure; TGFβ2 and h4A11.v2 Fab mixed at 1:1 molar ratio, complex purified on Superdex-200 (25 mM Tris-HCl pH 7.5, 200 mM NaCl); crystals by vapor diffusion at 19 °C, 15% PEG 4000, 0.1 M Na Cacodylate pH 6.0; 2.9 Å
Details: both partners purified

Row | Binder | binding result
1 | B1 | binds

Molecular target: T2, human mature TGFβ3 (Homo sapiens, UniProt P10600)
T2 construct: Transforming Growth Factor-beta 3, human, mature form (cut from the precursor); also called TGFb3; source: bought: PeproTech
T2 sequence (P10600 301-412): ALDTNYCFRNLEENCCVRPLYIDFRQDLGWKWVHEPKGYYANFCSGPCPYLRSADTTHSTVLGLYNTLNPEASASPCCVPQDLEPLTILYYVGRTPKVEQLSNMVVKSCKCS
Test: SPR; Biacore T200; antibody captured on a Protein A sensor chip (about 90 RU); mature TGFβ isoform injected, five-fold dilutions 0.008 nM to 5 nM; HBS-EP pH 7.4, 150 mM NaCl; 37 °C; 100 μl/min; 3 min association, 60 min dissociation; one-to-one Langmuir model, global fit
Details: both partners purified

Row | Binder | Kd
2 | B2 | 0.0139 nM
3 | B3 | 0.0125 nM
4 | B4 | 0.0097 nM
5 | B5 | 0.0141 nM
6 | B6 | 0.0144 nM
7 | B7 | 0.0133 nM

Molecular target: T3, human mature TGFβ1 (Homo sapiens, UniProt P01137)
T3 construct: Transforming Growth Factor-beta 1, human, mature form (cut from the precursor); also called TGFb1; source: bought: PeproTech
T3 sequence (P01137 279-390): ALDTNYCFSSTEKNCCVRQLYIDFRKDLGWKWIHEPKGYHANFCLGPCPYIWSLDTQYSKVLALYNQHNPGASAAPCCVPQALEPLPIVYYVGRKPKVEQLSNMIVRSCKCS
Test: as above
Details: both partners purified

Row | Binder | Kd | binding result
8 | B2 | > 5 nM | no binding (tested: 5 nM)
9 | B3 | > 5 nM | no binding (tested: 5 nM)
10 | B4 | > 5 nM | no binding (tested: 5 nM)
11 | B5 | > 5 nM | no binding (tested: 5 nM)
12 | B6 | > 5 nM | no binding (tested: 5 nM)
13 | B7 | > 5 nM | no binding (tested: 5 nM)

Molecular target: T4, human mature TGFβ2 (PeproTech) (Homo sapiens, UniProt P61812)
T4 construct: Transforming Growth Factor-beta 2, human, mature form (cut from the precursor); also called TGFb2; source: bought: PeproTech
Test: as above
Details: both partners purified

Row | Binder | Kd
14 | B2 | 0.0121 nM
15 | B3 | 0.0084 nM
16 | B4 | 0.0063 nM
17 | B5 | 0.0082 nM
18 | B6 | 0.0046 nM
19 | B7 | 0.0014 nM

Molecular target: T2, human mature TGFβ3
Test: cell-based or functional assay
Details: not given

Row | Binder | TGFβ inhibition by HEK-Blue cells (IC50: nM), TGFb3; Blocking: Incomplete | TGFβ inhibition by HEK-Blue cells (IC50: nM), TGFb3; Blocking: Complete
20 | B2 | > 667 nM | –
21 | B3 | > 667 nM | –
22 | B4 | – | 0.2 nM
23 | B5 | – | 0.7 nM
24 | B6 | > 667 nM | –
25 | B7 | > 667 nM | –

Molecular target: T3, human mature TGFβ1
Test: cell-based or functional assay
Details: not given

Row | Binder | TGFβ inhibition by HEK-Blue cells (IC50: nM), TGFb1
26 | B2 | > 667 nM
27 | B3 | > 667 nM
28 | B4 | > 667 nM
29 | B5 | > 667 nM
30 | B6 | > 667 nM
31 | B7 | > 667 nM

Molecular target: T4, human mature TGFβ2 (PeproTech)
Test: cell-based or functional assay
Details: not given

Row | Binder | TGFβ inhibition by HEK-Blue cells (IC50: nM), TGFb2; Blocking: Incomplete | TGFβ inhibition by HEK-Blue cells (IC50: nM), TGFb2; Blocking: Complete
32 | B2 | > 667 nM | –
33 | B3 | > 667 nM | –
34 | B4 | – | 0.9 nM
35 | B5 | – | 4.8 nM
36 | B6 | > 667 nM | –
37 | B7 | > 667 nM | –
